The values that follow are results of earlier work, collected in patent US4636489A, “Modified protease inhibitors, process for their preparation, and pharmaceutical compositions prepared therefrom” (Plantorganwerk KG, priority 1983, dated 1987).

B1: eglin C: protease inhibitor from leech extracts consisting of 70 amino acid radicals, described in DE-OS No. 28 08 396 (protein, UniProt P01051 1-70, looked up)
Eglin C: TEFGSELKSFPEVVGKTVDQAREYFTLHYPQYDVYFLPEGSPVTLDLRYNRVRVFYNPGTNVVNHVPHVG
Regarding B1, the inhibition of trypsin result in the data set with trypsin is reported as “only poor inhibitors”. Also, the “inhibition of PMN-granulocyte elastase” value in the data set with PMN-granulocyte elastase is “strongly inhibit”. Moreover, in the data set with cathepsin G, the “inhibition of cathepsin G” value was “strongly inhibit”. In addition, the inhibition of subtilisin entry with subtilisin was “strongly inhibit”. The inhibition of pancreaselastase result in the data set with pancreaselastase is “only poor inhibitors”. Besides, the inhibition of chymotrypsin result in the data set on chymotrypsin is on record as “strongly inhibit”.
